This note sets out measurements from the supplement of paper PMC9732359.

± gives the uncertainty stated by the source.

The data set in a line: protein stability index of a GFP-peptide fusion (yeast GPS) (PSI 1-4); higher = more stable; sorted into four equal gates, so the index is relative within each strain. The procedure, abridged: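 For each peptide, the protein stability index sums the read frequency in every gate after multiplying it by the gate number. Read frequencies came from plasmids that were PCR-amplified from each gate and Illumina-sequenced, with reads assigned to strains by barcodes. The gates were four equal bins of GFP/Cherry fluorescence ratio applied to mid-log yeast in leucine-free medium carrying a pooled library of tiled 17-residue yeast protein peptides fused downstream of GFP on a Cherry-expressing plasmid.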

For the sequence SETADETLENNIVSVLT [RPN11], the protein stability index by setting is: (doa10∆) 2.73 ± 0.11; (pdr5∆) 2.94 ± 0.076; (san1∆) 2.75 ± 0.11; (ubr1∆) 2.78 ± 0.097.

As for SETQTKDENNTANDQYS [YCG1], the protein stability index reads like this: (doa10∆) 2.89 ± 0.069; (pdr5∆) 3.15 ± 0.056; (san1∆) 2.84 ± 0.041; (ubr1∆) 3 ± 0.044.

With SEYMVFGKLAFPTRLGQ [YJL039C/NUP192], the protein stability index by setting is: (doa10∆) 3.01 ± 0.073; (pdr5∆) 2.52 ± 0.062; (san1∆) 2.75 ± 0.067; (ubr1∆) 2.15 ± 0.059.

For the sequence SFEKLYEGMKLGNHAIT [YMR129W/POM152], the protein stability index reads like this: (doa10∆) 2.85 ± 0.17; (pdr5∆) 1.47 ± 0.27; (san1∆) 1.85 ± 0.24; (ubr1∆) 2 ± 0.15.

Take SFFSGLSPPEFLFHAIS [RPO31]: the protein stability index stood at 2.07 ± 0.044 (doa10∆), 1.9 ± 0.05 (pdr5∆), 1.93 ± 0.11 (san1∆) and 1.91 ± 0.041 (ubr1∆).

For the sequence SFFVSVRKAITVLFFIG [FAS1], the protein stability index is, setting by setting: (doa10∆) 1.48 ± 0.087; (pdr5∆) 1.34 ± 0.11; (ubr1∆) 1.09 ± 0.041.

As for SFIINFISNLPNVSDKY [NUT1], the protein stability index reads like this: (doa10∆) 2.28 ± 0.08; (pdr5∆) 1.91 ± 0.07; (san1∆) 2.06 ± 0.15; (ubr1∆) 1.95 ± 0.057.

In turn, SFNCENFFQAPQDYVLE [YML031W/NDC1] had a protein stability index (doa10∆) of 3.07 ± 0.079, a protein stability index (pdr5∆) of 3.06 ± 0.082, a protein stability index (san1∆) of 3.09 ± 0.07 and a protein stability index (ubr1∆) of 3.11 ± 0.067.

SFNVKENQPFHGIKDIP [AAR2]: the protein stability index reads like this: (doa10∆) 2.73 ± 0.16; (pdr5∆) 3.17 ± 0.19; (san1∆) 2.98 ± 0.11; (ubr1∆) 2.34 ± 0.21.

For the sequence SFQLSKIRRAARDLLTR [RPS9A], the protein stability index by setting is: (doa10∆) 2.06 ± 0.044; (pdr5∆) 2.24 ± 0.044; (san1∆) 2.21 ± 0.045; (ubr1∆) 1.98 ± 0.032.

As to SFSFSIPSKNTPDASKP [YLR335W/NUP2], the protein stability index by setting is: (doa10∆) 2.42 ± 0.04; (pdr5∆) 2.45 ± 0.042; (san1∆) 2.28 ± 0.045; (ubr1∆) 2.5 ± 0.037.

Consider SFTFASSKTSQPKPLFS [YOR098C/NUP1], for which the protein stability index came to 2.37 ± 0.042 (doa10∆), 2.44 ± 0.035 (pdr5∆), 2.27 ± 0.046 (san1∆) and 2.69 ± 0.029 (ubr1∆).

With SFTPSTVPNINFSGLNG [YOR098C/NUP1], the protein stability index came to 2.59 ± 0.066 (doa10∆), 2.68 ± 0.068 (pdr5∆), 2.83 ± 0.056 (san1∆) and 2.97 ± 0.05 (ubr1∆).

For SFVLNKNTIDFERFPSP [RPN4], the protein stability index runs as follows: (doa10∆) 2.4 ± 0.059; (pdr5∆) 2.66 ± 0.058; (san1∆) 2.84 ± 0.057; (ubr1∆) 2.88 ± 0.052.

In the case of SGAYSYPDFRHYGLAVD [DIS3], the protein stability index reads like this: (doa10∆) 1.82 ± 0.047; (pdr5∆) 2.56 ± 0.056; (san1∆) 2.42 ± 0.089; (ubr1∆) 2.67 ± 0.043.

For SGDRLTRASKVLEQLSG [RPL11A], the protein stability index is, setting by setting: (pdr5∆) 3.12 ± 0.13; (san1∆) 2.43 ± 0.27; (ubr1∆) 2.92 ± 0.13.

For the sequence SGEEKGKKVSGFKDEVL [RPS1B], the protein stability index is 3.4 ± 0.11 (doa10∆), 3.61 ± 0.14 (pdr5∆), 3.48 ± 0.11 (san1∆) and 3.46 ± 0.083 (ubr1∆).

On to SGFYTFSLLDHHYRPDM [PRE1], for which the protein stability index reads like this: (pdr5∆) 3.1 ± 0.28; (san1∆) 2.99 ± 0.13.

In turn, SGGLFGNQQQQLQQQPQ [YGL172W/NUP49] yielded a protein stability index (doa10∆) of 2.88 ± 0.13, a protein stability index (pdr5∆) of 2.61 ± 0.15, a protein stability index (san1∆) of 2.89 ± 0.093 and a protein stability index (ubr1∆) of 3 ± 0.12.

SGIVASPAVKKLLQLAG [RPS2]: the protein stability index (doa10∆) worked out at 1.56 ± 0.12 and the protein stability index (pdr5∆) turned out to be 1.66 ± 0.14.

On to SGKITDFIKFDAGKLVY [RPS4A], for which the protein stability index reads like this: (doa10∆) 3.17 ± 0.066; (pdr5∆) 2.92 ± 0.061; (san1∆) 2.8 ± 0.06; (ubr1∆) 3 ± 0.064.

For SGLMVILYTSKIVFILD [RRI2], the protein stability index reads like this: (doa10∆) 1.76 ± 0.09; (pdr5∆) 1.81 ± 0.049; (san1∆) 1.44 ± 0.094; (ubr1∆) 1.69 ± 0.037.

As to SHAIRLGNGVACDPSEI [RGR1], the protein stability index runs as follows: (doa10∆) 1.52 ± 0.088; (pdr5∆) 1.64 ± 0.089; (san1∆) 2.91 ± 0.17; (ubr1∆) 2.16 ± 0.15.

With SHFSPDIKAAVDDSMEL [ITC1], the protein stability index was determined as 2.27 ± 0.096 (doa10∆), 2.44 ± 0.12 (pdr5∆), 1.9 ± 0.15 (san1∆) and 2.48 ± 0.079 (ubr1∆).

Consider SIGINDVTPADDLKQKK [RPO31], for which the protein stability index (doa10∆) was found to be 2.99 ± 0.25.

Take SIKNNVAMCFVINKLDR [SNU114]: the protein stability index was determined as 1.9 ± 0.14 (doa10∆) and 1.91 ± 0.12 (pdr5∆).

For SIKSQKEEISDQKPIEH [SWI3], the protein stability index is, setting by setting: (doa10∆) 2.88 ± 0.059; (pdr5∆) 2.98 ± 0.055; (san1∆) 2.84 ± 0.048; (ubr1∆) 2.96 ± 0.045.

As to SILESSMFLRIDYSNSQ [RGR1], the protein stability index runs as follows: (doa10∆) 2.42 ± 0.083; (pdr5∆) 2.14 ± 0.064; (san1∆) 1.59 ± 0.095; (ubr1∆) 2.41 ± 0.063.

Take SILKRHSFAVLLHERKL [NUT1]: the protein stability index is, setting by setting: (doa10∆) 2.19 ± 0.12; (pdr5∆) 2.13 ± 0.078; (san1∆) 2.26 ± 0.18; (ubr1∆) 2.45 ± 0.1.

As to SISGFKEALLGQLLKDH [ARP9], the protein stability index is, setting by setting: (doa10∆) 2.01 ± 0.19; (pdr5∆) 2.29 ± 0.092; (san1∆) 1.89 ± 0.08; (ubr1∆) 2.26 ± 0.068.

Take SISSVVSEDLLDERGHE [RPN4]: the protein stability index reads like this: (doa10∆) 3.11 ± 0.1; (pdr5∆) 2.99 ± 0.096; (san1∆) 2.85 ± 0.056; (ubr1∆) 2.79 ± 0.057.

Turning to SITLQGDVYDPEGTLSG [SMC2], the protein stability index reads like this: (doa10∆) 2.76 ± 0.16; (pdr5∆) 2.6 ± 0.13; (ubr1∆) 2.28 ± 0.12.

Turning to SIVNICDIQEEQVDITA [PUP1], the protein stability index (doa10∆) is 2.83 ± 0.15, the protein stability index (pdr5∆) stood at 2.91 ± 0.16, the protein stability index (san1∆) amounted to 3.31 ± 0.12 and the protein stability index (ubr1∆) was 2.74 ± 0.11.

For SKDEPVSKAVESKSLLN [SIR4], the protein stability index by setting is: (doa10∆) 2.39 ± 0.097; (pdr5∆) 2.82 ± 0.091; (san1∆) 1.37 ± 0.12; (ubr1∆) 1.86 ± 0.097.

Take SKESWRYDWYQPSKVSS [RTT102]: the protein stability index by setting is: (doa10∆) 2.09 ± 0.097; (pdr5∆) 2.33 ± 0.098; (san1∆) 1.94 ± 0.074; (ubr1∆) 1.96 ± 0.036.

On to SKFTKIPPTFDKGAVGP [MED4], for which the protein stability index is, setting by setting: (doa10∆) 3.17 ± 0.072; (pdr5∆) 3.29 ± 0.079; (san1∆) 3.33 ± 0.076; (ubr1∆) 3.08 ± 0.11.

Regarding SKGYPIQFLTIGAGVPS [FAS1], the protein stability index runs as follows: (doa10∆) 1.4 ± 0.032; (pdr5∆) 1.64 ± 0.045; (san1∆) 1.34 ± 0.061; (ubr1∆) 1.34 ± 0.036.

Take SKIRKIHIQETQEFSKN [SIR3]: the protein stability index reads like this: (doa10∆) 3.45 ± 0.11; (pdr5∆) 3.08 ± 0.15; (ubr1∆) 3.36 ± 0.084.

SKKAEKTGTKPAAVFTE [RPL4A] came in with a protein stability index (doa10∆) of 2.52 ± 0.068, a protein stability index (pdr5∆) of 2.79 ± 0.085, a protein stability index (san1∆) of 2.44 ± 0.072 and a protein stability index (ubr1∆) of 2.76 ± 0.061.
